# Assay results published in the supplement of paper PMC9170038.
# Tested on: MS2 coat protein
# Test: apparent KD of MS2 coat protein; designed switch direction (-1 OFF switch, 1 ON switch): -1; higher = weaker reporter binding
# Method in brief: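 Three titration conditions were used: no input, 200 uM small-molecule ligand, and an oligonucleotide input. In each, SNAP-549-labelled MS2 coat protein was raised from 0.7 or 1.5 nM, doubling, to 3 µM over designed RNA switches transcribed on Illumina chips by stalled E. coli RNA polymerase. Curve fits of normalised cluster fluorescence gave values whose per-design median over clusters is the apparent KD.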
# [1] = input ligand: microRNA oligo, concentration not stated
# [2] = Eterna round: R95, input ligand: FMN 200 uM
# [3] = Eterna round: R95, input ligand: microRNA oligo, concentration not stated
# [4] = Eterna round: R95, input ligand: none
Sequence,apparent KD of MS2 coat protein (input ligand: FMN 200 uM) [nM],apparent KD of MS2 coat protein [1] [nM],apparent KD of MS2 coat protein (input ligand: none) [nM],apparent KD of MS2 coat protein [2] [nM],apparent KD of MS2 coat protein [3] [nM],apparent KD of MS2 coat protein [4] [nM]
"AGAUAGUGCUGAGGAUAUCUGAAUAGAAAGAAAAGAGAAGGCGGACAUGAGGAUCACCCAUGUGAGGUCUUGAGACUACAUGGU [Prohibition 37 - Jieux - Exclusion NG 1] (Eterna round: R96, puzzle: Exclusion NG 1)",393,42.9,80.4,–,–,–
"AGAUCACAUGAGGAUCACCCAUGUCAGGAUAUCAUCAUUGAAGCCUCGGCUUCAAUGAUGAGAAGGGACAUAAU [E1/2-B2] (Eterna round: R97, puzzle: Exclusion 1)",546,–,465,–,–,–
"AGAUGCAGAGUAAGGAUAUGGUAGGCUUGCGCAAACCAGAAGGUACAUGAGGAUCACCCAUGUAAGCAUCAAGU [eternacac ex4r4 #5] (Eterna round: R97, puzzle: Brourd's mod of Exclusion 4)",16,–,15.1,–,–,–
"AGAUGCUUAAGUCGACAUGAGGAUCACCCAUGUACAGUUAACGAGGAUAUCCGAGAUAAAUAAUAGGAGAAGGCGUGAUCAUGA [Ex NG3 #2] (Eterna round: R96, puzzle: Exclusion NG 3)",56.6,363,277,–,–,–
AGAUGGCGAGGAUAUACAUGAGGAUCACCCAUGUGAGAUAAAAGAGUGAGGAAGAAAAGUAGAAGGCGCUGUCA [Mat - Exclusion 3 - Mod of Salish D16] (puzzle: Exclusion 3),–,–,–,116,95.8,120
AGAUGGCGAGGAUAUACAUGAGGAUCACCCAUGUGAGAUAAGAAAGUGAGGAAGAAAAGUAGAAGGCGCUGUCA [Mat - Exclusion 3 - Mod of Salish D12] (puzzle: Exclusion 3),–,–,–,281,58.6,58.4
AGAUGUACCUAGGAUAUCCGUCGAAUUGGACUAGGAGAAGGAGGUACAUGAGGAUCACCCAUGUAUGACUCCUG [Bemabice] (puzzle: Exclusion 6),–,–,–,–,10.1,–
"AGAUGUAGAUACCGGUCCUACAUGAGGAUCACCCAUGUAGCUAGACGUGCGGGCGGCGCUCGUCGGUCUACCAGUAG [salish99_TOv1_r3_099] (puzzle: Sensor v3, turn-off variant 1)",–,–,–,30.2,30.7,37.7
"AGCAGACGAGGAUAUAAACGAUAUAACAUGAGGAUCACCCAUGUACGAUCGAAUGAUCGUUUAGAAGGCGUCUGCU [E5/10-A2] (Eterna round: R97, puzzle: Exclusion 5)",17.3,–,15.1,–,–,–
AGCAUGGUAGGAUAUACGGAACAUUAGGGUUUGUUGUGUGGACAUGAGGAUCACCCAUGUAGAAGGGCCGUGCA [Mat - Exclusion 2 - Mod of JL - D81] (puzzle: Exclusion 2),–,–,–,–,33.7,–
"AGCCAAGCAGGAUAUGCACGUAAUAACAUGAGGAUCACCCAUGUGACCGAUUUAUAUUCUGCAGAAGGGCUUGGAA [LRO-Excl5-14-mod of Erxesoan mod by Eli Fisker] (Eterna round: R97, puzzle: Exclusion 5)",143,–,29.7,–,–,–
"AGCCACAGAGGAUAUACAUACAUCCAGUAGUAGAUACUACUACAUGAGGAUCACCCAUGUAGAAGGCUGUGGCA [Omei Ex2 BD B17] (Eterna round: R97, puzzle: Exclusion 2)",603,–,162,–,–,–
"AGCCUGUAAUCCCUCAGACAUGAGGAUCACCCAUGUGGAUGUAAGGAUAUAGGUGCAAUUGCAAUCUAGAAGGUACGCCGUCAG [Eternabot solution 32] (Eterna round: R96, puzzle: Exclusion NG 3)",44.8,23.1,31.4,–,–,–
"AGCGAAUAGCUAGGAUAUGAGAAUAGAUAGAGCUCAGAAGGAGCACAUGAGGAUCACCCAUGUGAAGUCUUGAGGCUGCGUGGU [Prohibition 17 - Jieux - Exclusion NG 1] (Eterna round: R96, puzzle: Exclusion NG 1)",20.8,14.7,18.8,–,–,–
"AGCGCCAUCGUGAGAUGGCGUAUUACAUGAGGAUCACCCAUGUAGGAUAUCGAUUGCUUUGCAGUCGAGAAGGACAUGUUCUUG [JL ENG3 3.80 Mod B] (Eterna round: R96, puzzle: Exclusion NG 3)",–,39.4,–,–,–,–
"AGCGUGGAGACAGGAUAUGAGAAUAGAUAGAAAUCAGAAGGGUCACAUGAGGAUCACCCAUGUAAAGUCUUGAGGAUGAGUGAU [Prohibition 3 - Jieux - Exclusion NG 1] (Eterna round: R96, puzzle: Exclusion NG 1)",–,70.4,–,–,–,–
"AGCUAGAUAGGAUAUGCCCGAGAUAACAUGAGGAUCACCCAUGUGACCGAAUCAAAUCUAGCAGAAGGGUUUAGGA [Mod of ViennaUCT 15 - Jieux - Exclusion 5] (Eterna round: R97, puzzle: Exclusion 5)",16.5,–,17.2,–,–,–

Sequence,apparent KD of MS2 coat protein (input ligand: FMN 200 uM) [nM],apparent KD of MS2 coat protein [1] [nM],apparent KD of MS2 coat protein (input ligand: none) [nM],apparent KD of MS2 coat protein [2] [nM],apparent KD of MS2 coat protein [3] [nM],apparent KD of MS2 coat protein [4] [nM]
"AGCUGACGAGGAUAUACAUGAGGAUCACCCAUGUUGGUCAAGCGACGAUAGUCGCAAUGUAGAAGGCGUCAGCU [E3/8-A1] (Eterna round: R97, puzzle: Exclusion 3)",621,–,547,–,–,–
"AGCUGUGGCCGAGGAUAUCAAGAACCAUGGAAAACCAUGGAACCUUGACAUGAGGAUCACCCAUGUGAGAAGGCGGUCUCAGCA [Eli eng2 - 026] (Eterna round: R96, puzzle: Exclusion NG 2)",–,11.1,–,–,–,–
"AGCUGUGGCCGAGGAUAUCUAACAGUCCCAACCGAAAUAUAAUCGGACAUGAGGAUCACCCAUGUAGAGAAGGCGGUCUCAGCA [Eli eng2 - 072] (Eterna round: R96, puzzle: Exclusion NG 2)",324,157,222,–,–,–
"AGGACGGCAGGAUAUACAUGAGGAUCACCCAUGUCUGGUGUCGAGCUAAUUGUGCAUAGUAGAAGGGUCGCUCC [Eternabot (L1) Solution 39] (Eterna round: R97, puzzle: Exclusion 3)",204,–,62.1,–,–,–
"AGGAGACAUGAGGAUCACCCAUGUGAGGAUAUCGAUGUUACGUGGAUAACCACUUCGUUGAGAAGGCACGCUUC [Eternabot (L2) Solution 55] (Eterna round: R97, puzzle: Exclusion 1)",43,–,38.6,–,–,–
"AGGAUGUAAGGAUAUCCAAGGGUAACGCCAAUGGCAGCCCAGGAGAAGGUACAUGAGGAUCACCCAUGUGAUAA [Leatbi] (Eterna round: R97, puzzle: Exclusion 4)",263,–,80.8,–,–,–
"AGGAUGUUAGGAUAUGCUAGAGUACUACAGAGUACUACGGAGCAGAAGGAACAUGAGGAUCACCCAUGUCACCU [Exclusion 4 R4 S1] (Eterna round: R97, puzzle: Exclusion 4)",19.9,–,14,–,–,–
AGGCGUGCUGAGGAUAUACUACCGGGUGCGAUAGUAGAAGGUAGCACAUGAGGAUCACCCAUGUGGUCAGAUGC [Qureaor] (puzzle: Exclusion 6),–,–,–,56.3,20,23.6
"AGGGAGCGAGGAUAUACAGAGUAGGAAACCACUCCCUCAGUACAUGAGGAUCACCCAUGUAGAAGGCGCCCGAA [EX2 A.8] (Eterna round: R97, puzzle: Exclusion 2)",39.2,–,31.5,–,–,–
"AGGGAGUCAGGAUAUUAUUUUUAGCGGGAUAACGCUGAGGGUGAGAAGGGACAUGAGGAUCACCCAUGUUUUGA [JR_Ex4_Sub075] (Eterna round: R97, puzzle: Exclusion 4)",167,–,183,–,–,–
AGGGAUAAAGGAUAUACAUGAGGAUCACCCAUGUUGAGGAAAGUGAGAUGAGGAGGAAGUAGAAGGUUAGGCGG [JR_Exclu3_Sub084] (puzzle: Exclusion 3),–,–,–,35.7,33.9,31.4
"AGGUCCUUCUGGAGACAUGAGGAUCACCCAUGUCGGGUCAGCGAGGAUAUCGGUCAAUAAUGUGACGAGAAGGCGCGGACCGAU [Ex NG3 #57] (Eterna round: R96, puzzle: Exclusion NG 3)",55.5,17.1,19.9,–,–,–
"AGGUGCUUCUGGAGACAUGAGGAUCACCCAUGUCGAGUUAGCGAGGAUAUCGGUAAGGCAUGUGAUGAGAAGGCGCAAACCGAU [Ex NG3 #50] (Eterna round: R96, puzzle: Exclusion NG 3)",22.8,12.7,24.3,–,–,–
"AGGUGUAGAGGAUAUCGAAUCCUUUACAUGAGGAUCACCCAUGUCCUGGGCACCCAGGACCGAGAAGGCUACACCA [Omei Ex5 D33] (Eterna round: R97, puzzle: Exclusion 5)",40.2,–,2350,–,–,–
"AGGUUGUGAGGAUAUUAGUUAUAUGAUUGGAGGAGUAUGGCUGAGAAGGCACAUGAGGAUCACCCAUGUAGAUC [JR_Ex4_Sub048] (Eterna round: R97, puzzle: Exclusion 4)",555,–,162,–,–,–
AGUAACAGAGGAUAUACUGUUUUAUGUGUUUAUUGUUUUAAACAUGAGGAUCACCCAUGUAGAAGGCUGAAUAA [JMF 85] (puzzle: Exclusion 2),–,–,–,–,25.5,–
AGUAACAGAGGAUAUACUGUUUUAUGUGUUUGUUAUUUUAAACAUGAGGAUCACCCAUGUAGAAGGCUGAAUAA [JMF 83] (puzzle: Exclusion 2),–,–,–,–,21.4,–
